Paper PMC10269845
pKd: −log10 of the molar value.

Biological target: plasminogen (UniProt P00747)
Assay: SPR

plasminogen, sequence (P00747 20-810): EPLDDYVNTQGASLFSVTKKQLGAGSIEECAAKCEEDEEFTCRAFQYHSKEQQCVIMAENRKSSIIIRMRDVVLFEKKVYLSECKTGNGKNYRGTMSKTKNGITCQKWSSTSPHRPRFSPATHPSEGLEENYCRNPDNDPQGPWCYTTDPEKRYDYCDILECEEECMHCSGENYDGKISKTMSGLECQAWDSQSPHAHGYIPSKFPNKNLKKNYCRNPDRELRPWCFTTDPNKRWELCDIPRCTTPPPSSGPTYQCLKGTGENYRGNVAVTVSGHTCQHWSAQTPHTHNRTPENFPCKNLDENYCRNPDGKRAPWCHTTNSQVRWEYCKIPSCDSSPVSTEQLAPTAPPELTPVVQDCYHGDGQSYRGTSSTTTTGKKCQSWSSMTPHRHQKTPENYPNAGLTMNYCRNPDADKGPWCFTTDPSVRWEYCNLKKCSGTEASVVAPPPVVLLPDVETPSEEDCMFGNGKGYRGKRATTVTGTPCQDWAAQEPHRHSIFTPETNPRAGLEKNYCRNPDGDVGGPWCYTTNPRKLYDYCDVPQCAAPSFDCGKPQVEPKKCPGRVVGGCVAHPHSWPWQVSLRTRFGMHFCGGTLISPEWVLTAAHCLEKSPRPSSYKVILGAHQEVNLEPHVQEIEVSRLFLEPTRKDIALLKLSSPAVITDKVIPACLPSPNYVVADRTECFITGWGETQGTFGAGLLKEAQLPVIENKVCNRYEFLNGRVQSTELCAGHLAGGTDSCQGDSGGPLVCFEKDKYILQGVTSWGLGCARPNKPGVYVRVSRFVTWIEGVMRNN

rGAPDH C-terminal mutant (K336A) (from UniProt E4QS33 1-336) (enzyme)
pKd: 6.22
